According to the supplement of paper PMC9170038:

Tested on: K4 kissing-loop RNA reporter
Assay: apparent KD of K4 kissing-loop reporter; higher = weaker reporter binding
Conditions: Eterna round: R107
Protocol: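 RNA-MaP round R107: designed RNA switches with theophylline, tryptophan, arginine or FMN aptamers are transcribed on-chip within common flanks. They are titrated with a labelled K4 kissing-loop RNA reporter in RNA-MaP buffer (100 mM Tris pH 7.5, 80 mM KCl, 4 mM MgCl2), without ligand or with the indicated ligand. Median apparent KD per design.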

[1] = input ligand: theophylline 20 uM
[2] = input ligand: tryptophan 2.4 mM
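Also: bound reporter read as fluorescence of individual clusters on recovered sequencing chips by microscopy, with normalized cluster intensities fitted with a binding model.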

| Sequence | apparent KD of K4 kissing-loop reporter (input ligand: FMN 200 uM) [µM] | apparent KD of K4 kissing-loop reporter (input ligand: arginine 13.2 mM) [µM] | apparent KD of K4 kissing-loop reporter (input ligand: none) [µM] | apparent KD of K4 kissing-loop reporter [1] [µM] | apparent KD of K4 kissing-loop reporter [2] [µM] |
| --- | --- | --- | --- | --- | --- |
| UACAGGGAUAGUGAUGUUAUCCCAUGUGAUACCAGUGCCAUCCAACACCCUUGGCAGCAUACGGGCAGUGAUGUUGUUCUUGGUA [#16 K4 Theophylline A Exclusion] | 0.0898 | 0.0798 | 0.086 | 0.0861 | 0.0801 |
| UACAUAUUAUUUAACAUAAAUUUUACAGAAGGAGCGUGAUCAUUCACAGGUAGGUCGCUGAACUAGUGAUGUUAGUUUUAUUUUU [JR_Nu_ExcArginiA_Sub025] | 0.0627 | 0.0961 | 0.0715 | 0.097 | 0.0573 |
| UACUAUAGUGAUGUUAUAGAUAAACCAGAUACCAGUGUAACAUAACACCCUUGGCAGCUGAUGAGGGAACAUAUGAAUGCAUAUG [AstrosSSTHe-A#5newdesignED5.11] | 0.196 | 0.166 | 0.179 | 0.178 | 0.163 |
| UACUAUAGUGAUGUUAUAGAUAAACCAGAUACCAGUGUAACAUAACACCCUUGGCAGCUGAUGAGGGAACUAUUGAAAACAAUAG [AstroSTH-A#7newdesignED4.86] | 0.248 | 0.203 | 0.267 | 0.223 | 0.217 |
| UACUAUAGUGAUGUUAUAGAUAAACCAGAUACCAGUGUAACAUAACACCCUUGGCAGCUGAUGAGGGAAGAUAUCAAAAGAUAUC [AstroSTH-A#9newdesignED4.70] | 0.218 | 0.218 | 0.202 | 0.247 | 0.199 |
| UAGUCCUAGUGAUCGUUAUCACGUGGUGGGCGAGGACCGGUACGGCCGCCACUCGACUAUGCAGUGAUGUUGCAAUCCGGACAAU [Exclusion - Tryptophan A (Freestyle 15)] | 0.294 | 0.436 | 0.477 | 0.325 | 0.145 |
| UAGUGUCGCGCAGGAUAUACUGAUUGGAGUGAUGUUCCAAACAUGCACGUGUGACUUUUACAAGAAGUAGAAGGGCGUGAGACAU [Exclusion FMN B GF 22] | 0.303 | 0.2 | 0.184 | 0.198 | 0.179 |
| UAUAUAGUGACGGCCGCCACUAUUGUGAUGUUAUUGUUAGAGUGAUGUUUUGUUGUUUAAUUUUGUAGGACCGGGUUAUAUGUUA [xxzsmullin] | 0.846 | 0.451 | 0.568 | 0.53 | 0.543 |
| UAUCUAUGCUCGGCCGCCACUAGGACCGGGAUCUCUCUAGUGAUGUUAGUCUGAUCGGCCGCCACUAGGACCGGGAGUGUAGAUA [KL-SSTryp-B15 #DoubleAptamer] | 0.101 | 0.0887 | 0.0912 | 0.104 | 0.0803 |
| UAUCUAUGCUCGGCCGCCACUAGGACCGGGUAGUCUCUAGUGAUGUUAGUCUCUACGGCCGCCACUAGGACCGGGAGUGUAGAUA [KL-SSTryp-B16 #DoubleAptamer] | 0.286 | 0.235 | 0.225 | 0.225 | 0.0825 |
| UAUGAAGGUGGAGGAUAUUGAUUGAAUCUUGGUCUGGAGUGAUGUUCCGGGAAGCCUUGGAUUCAUCGAGAAGGCCAAGGAUAGU [Extra 1] | 0.123 | 0.269 | 0.307 | 0.263 | 0.198 |
| UAUUAAUUGUCAGGAUAUCGUAAUCGAGUGAUGUUCGAAUAUCGACGAUAGUCGAUAUUAUUUAUACGAGAAGGGACAUUAUUUA [JR_SSFMNB_Sub004] | 0.366 | 0.298 | 0.417 | 0.321 | 0.332 |
| UCACCGCCUAGUGAUGUUACGCGACUCAGAAAGGAUAUAAUCAAUCUUAGAAGGUUCACACCGUAUGGAUAUUAUCUAUCUCGUU [theeternabot_exclusion_KL_FMN_A_39] | 0.456 | 0.284 | 0.427 | 0.437 | 0.398 |
| UCCUAGGCUCGAAAGAGCCUAGGAUAUACUCAGGAUAUCCGGAAACGGAGAAGGGAGUAACUAGUGAUGUUAGGGAUUCCCUAUU | 0.26 | 0.096 | 0.109 | 0.0987 | 0.0965 |
| UCCUCGAAUCGACCUCGAAAGAGGAUGGAUACCAGAGAAGAAAUUCUCCCUUGGCAGCCAGUGAUGUUGGAACGAGGUAAAUAAA [#SwitchBubble 20 #K4Late] | 0.508 | 0.412 | 0.517 | 0.327 | 0.424 |
| UCCUGCAAUCAACCACGAAAGUGGUUCGAUACCAGAGUCGAAAGACUCCCUUGGCAGCGAGUGAUGUUCGAGCAGGUAAAAUAAA | 0.862 | 0.642 | 0.754 | 0.646 | 0.602 |
| UCCUGCAAUCUGCCACGAAAGUGGAUUGAUACCAGAGUCGAAAGACUCCCUUGGCAGCGAGUGAUGUUCGAAGCAGGUAAAUAAA | 0.0994 | 0.149 | 0.124 | 0.16 | 0.0917 |
| UCGAGUGAUGUUCGAUUUCAGUGAAGAGAUACCAGCCGCAGUGUAGGCCCUUGGCAGCUCGGCUAUUAUGACAUAUGCAGUUUAG [theeternabot_sameState_KL_Theo_A_29] | 0.125 | 0.121 | 0.119 | 0.122 | 0.08 |
| UCGCAAGAAUCACUGUGGAGGACCUUGGCCAAGGAUAUCAAAGGAUUGAGAAGGUGGCGCCAAGUGAUGUUUGGAUGCCGGGCAG [theeternabot_exclusion_KL_FMN_A_36] | 0.149 | 0.286 | 0.293 | 0.183 | 0.256 |
| UCGCAUUAACCGGAUACCAGCUUAGUGGGAUCUUCAAUCCGACAGAAAGUGAUGUUUUCUAGCCCUUGGCAGCCGAGAUUAUCAC [theeternabot_sameState_KL_Theo_B_50] | 0.231 | 0.333 | 0.331 | 0.412 | 0.348 |
| UCGCCCGAUGGAGAUACCAGCAGUUGUGCAGUGAUGUUGCACAAGUACUCGCUCCAUUGCUGCCCUUGGCAGCUCCCGGCAAACA [Enraed] | 0.0933 | 0.085 | 0.0876 | 0.0828 | 0.0893 |
